Data published in US9309288B2, “Selective αvβ3 receptor peptide antagonist for therapeutic and diagnostic applications” (ADVANCED ACCELERATOR APPLICATIONS, priority 2005, dated 2016).

Target: αvβ3 (Homo sapiens, UniProt P05106+P06756)
Assay: Cell adhesion assay, αvβ3 overexpressing K562 cells (Kαvβ3) on vitronectin
Assay type: cell-based
Design: expressed in transfected cells; host or cells: K562 (human erythroleukemia), gift of Dr. S. D. Blystone
Conditions: 10 μM peptide
Procedure: Cell Adhesion and Competitive Assay: Human erythroleukemia K562 cells, stably cotransfected with cDNA of αv or αIIb subunit and β3 or β5 subunits, were kindly provided by Dr. S. D. Blystone (SUNY Upstate Medical University, Syracuse, N.Y.). Cells were maintained in Iscove's Modified Dubecco's Medium (IMDM) supplemented with 10% heat-inactivated fetal bovine serum, 100 IU/ml penicillin, 50 μg/mL streptomycin and 500 μg/mL G418 in a humidified incubator with 5% CO2 at 37° C. […] Cells were used to determine affinity for αvβ3 and cross-reactivity with αvβ5 and αIIbβ3 integrin.
Briefly, 24-well flat-bottom plates were incubated overnight with 5 μg/mL vitronectin. The pre-coated plates were rinsed with PBS, incubated for 1 h at 23° C. with 1% heat-denatured bovine serum albumin, and rinsed again. Then, αvβ3 overexpressing K562 cells were incubated with various concentrations of cyclic RGD peptides or diluents for 1 h at 4° C. Peptide-treated cells (0.2-0.5×106/100 μL/well) were seeded onto pre-coated plates and allowed to adhere for 1 h at 37° C. in 5% CO2. Non-adherent cells were removed with gentle washing, whereas adherent cells were detached by trypsinization and counted. Three different adhesion assays were performed in duplicates.
All synthesized peptides were tested for their ability to inhibit cell adhesion to vitronectin. […]

Chain of αvβ3 (P06756 31-889 limits assumed): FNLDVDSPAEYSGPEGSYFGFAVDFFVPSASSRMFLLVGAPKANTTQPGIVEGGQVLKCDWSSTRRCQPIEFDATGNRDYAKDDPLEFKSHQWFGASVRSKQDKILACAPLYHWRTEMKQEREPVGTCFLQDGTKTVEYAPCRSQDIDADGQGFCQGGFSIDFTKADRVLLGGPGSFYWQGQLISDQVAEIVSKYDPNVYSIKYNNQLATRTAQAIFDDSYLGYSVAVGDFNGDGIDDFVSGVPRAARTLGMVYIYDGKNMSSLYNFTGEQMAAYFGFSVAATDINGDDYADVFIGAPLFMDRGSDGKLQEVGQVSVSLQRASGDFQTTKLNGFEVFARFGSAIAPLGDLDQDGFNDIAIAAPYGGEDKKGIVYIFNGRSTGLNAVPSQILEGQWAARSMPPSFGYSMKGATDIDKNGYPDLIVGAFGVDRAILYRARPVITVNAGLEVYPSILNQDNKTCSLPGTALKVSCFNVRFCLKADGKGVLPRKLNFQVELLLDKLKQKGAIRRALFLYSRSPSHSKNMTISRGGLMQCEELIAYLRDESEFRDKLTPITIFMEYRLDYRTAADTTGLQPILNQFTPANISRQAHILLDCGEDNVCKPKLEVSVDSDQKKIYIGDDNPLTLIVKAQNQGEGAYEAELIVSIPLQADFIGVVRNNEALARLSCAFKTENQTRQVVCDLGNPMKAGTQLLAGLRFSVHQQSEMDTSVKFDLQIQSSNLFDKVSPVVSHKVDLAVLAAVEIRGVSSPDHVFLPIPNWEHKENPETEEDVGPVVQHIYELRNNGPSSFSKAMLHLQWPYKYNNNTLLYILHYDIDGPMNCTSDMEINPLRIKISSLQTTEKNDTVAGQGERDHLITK
Chain of αvβ3 (P06756 891-1048 partner limits assumed): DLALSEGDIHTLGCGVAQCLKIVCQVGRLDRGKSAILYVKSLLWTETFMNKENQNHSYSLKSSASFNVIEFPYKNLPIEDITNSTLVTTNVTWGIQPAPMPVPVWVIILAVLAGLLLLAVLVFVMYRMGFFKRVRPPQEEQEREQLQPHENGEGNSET
Chain of αvβ3 (P05106 27-788): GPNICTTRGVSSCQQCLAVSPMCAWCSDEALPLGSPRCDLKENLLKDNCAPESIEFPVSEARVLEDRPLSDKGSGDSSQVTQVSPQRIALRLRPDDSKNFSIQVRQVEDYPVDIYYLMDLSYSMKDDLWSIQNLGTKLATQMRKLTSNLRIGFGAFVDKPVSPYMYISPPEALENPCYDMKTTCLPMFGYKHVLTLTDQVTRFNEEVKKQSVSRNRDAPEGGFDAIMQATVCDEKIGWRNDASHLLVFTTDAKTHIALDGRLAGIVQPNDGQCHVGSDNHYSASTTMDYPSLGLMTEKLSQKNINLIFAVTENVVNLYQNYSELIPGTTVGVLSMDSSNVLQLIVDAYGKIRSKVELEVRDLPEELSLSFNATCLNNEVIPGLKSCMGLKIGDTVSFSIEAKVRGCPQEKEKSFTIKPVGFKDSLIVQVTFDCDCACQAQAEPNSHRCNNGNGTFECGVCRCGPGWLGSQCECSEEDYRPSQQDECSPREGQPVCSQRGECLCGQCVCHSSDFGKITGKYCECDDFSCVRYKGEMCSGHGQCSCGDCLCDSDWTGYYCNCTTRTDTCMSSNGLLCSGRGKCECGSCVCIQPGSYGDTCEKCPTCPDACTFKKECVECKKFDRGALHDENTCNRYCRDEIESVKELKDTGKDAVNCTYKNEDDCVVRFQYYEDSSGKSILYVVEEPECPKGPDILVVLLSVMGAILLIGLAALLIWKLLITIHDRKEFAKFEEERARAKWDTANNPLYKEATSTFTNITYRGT

| Substance | cell adhesion remaining as compared to untreated control cells [%] |
| --- | --- |
| RNPHKGPAT [echi 11-19] | 97.5 |
| echi6-19: fragment of the RGDechi sequence (SEQ ID NO: 2) (MDDPGRNPHKGPAT) | 99.0 |
